Patent US9938510B2, “Photobacterium sp. alpha-2-6-sialyltransferase variants” (The Regents of the University of California, priority 2014, dated 2018)
Values belong to the molecule of their own block, whether it stands above or below them.

Columns and labels:
[1] = substrate: CC(=O)N[C@H]1[C@H]([C@H](O)[C@H](O)CO)O[C@](OP(=O)(O)OC[C@H]2O[C@@H](n3ccc(N)nc3=O)[C@H](O)[C@@H]2O)(C(=O)O)C[C@@H]1O; experiment: Donor hydrolysis kinetics (CMP-Neu5Ac hydrolysis), Psp2,6ST(15-501)-His6 A235D mutant; assay type: biochemical, Photobacterium sp. JH-ISH-224; conditions: other: apparent, 20° C., 10 min, Tris-HCl pH 8.0
Experimental: (§1) Procedure for Kinetic Analysis of Donor Hydrolysis by His6-Pd2,6ST(16-497), Psp26ST(15-501)-His6 and its A235D and A366G Mutants
(§2) The kinetics study for the donor hydrolysis activity of His6-Pd2,6ST(16-497) was carried out at 37° C. for 20 min in Tris-HCl buffer (200 mM, pH 8.0). The kinetics study for the donor hydrolysis activities of Psp26ST(15-501)-His6 and its A235D mutant was carried out at 20° C. for 10 min in Tris-HCl buffer (200 mM, pH 8.0). All reactions were performed in duplicate in a total volume of 10 μL containing varied concentrations of CMP-Neu5Ac (10, 20, 40, 60, 80 and 100 mM) and the enzyme (6 μM). Reactions were stopped by adding 10 μL of ethanol and then centrifuged. The supernatants were analyzed by a P/ACETM capillary electrophoresis (CE) system equipped with a photodiode array (PDA) detector (Beckman Coulter, Inc., Fullerton, Calif.). CE conditions were as follows: 75 μm i.d. capillary, 25 KV/80μÅ, 5 s vacuum injections, monitored at 200 nm and 254 nm, the running buffer used was sodium tetraborate (25 mM, pH 9.4). Apparent kinetic parameters were obtained by fitting the experimental data (the average values of duplicate assay results) into the Michaelis-Menten equation using Grafit 5.0.

[2] = Sialyltransferase activity assays, statements not tied to one acceptor (LacβMU, GalNAcα2AA, GalNAcαSer, GalNAcαThr); assay type: biochemical
Experimental: When LacβMU was used as an acceptor, the assay was performed in duplicate in 10 μL of Tris-HCl buffer (100 mM, pH 8.0) containing CMP-Neu5Ac (1 mM), LacβMU (1 mM), MgCl2 (20 mM), wild-type Psp2,6ST(15-501)-His6 or its mutant (0.3 μM). When an α-GalNAc-terminated acceptor was used, the assay was performed in duplicate in 10 μL of Tris-HCl buffer (100 mM, pH 8.0 for GalNAcαSer/Thr) or NaOAc-HOAc (100 mM, pH 5.0 for GalNAcα2AA) containing CMP-Neu5Ac (1.5 mM), the acceptor (1 mM), MgCl2 (20 mM), wild-type Psp2,6ST(15-501)-His6 or its mutant (3.0 μM). Reactions were allowed to proceed at 20° C. for 20 min and stopped by adding 10 μL of cold ethanol. The analysis of sialylated product conversion was performed using the HPLC system as described above for sialyltransferase activity assay. The 4-methylumbelliferone (MU)-labeled fluorescent acceptor and the product formed were detected with excitation at 325 nm and emission at 372 nm. The 2-aminobenzoic acid (2AA)-labeled fluorescent acceptors and the products formed were detected with excitation at 315 nm and emission at 400 nm. The 9-fluorenylmethylcarbamate (Fmoc)-labeled fluorescent acceptors and the products formed were detected with excitation at 262 nm and emission at 313 nm.

[3] = Kinetics of CMP-Neu5Ac donor hydrolysis activity (capillary electrophoresis); assay type: biochemical
Experimental: as §1, §2

[4] = One-pot two-enzyme (OP2E) sialylation with NmCSS, GalNAcαThr as acceptor; assay type: biochemical; conditions: 2.5 equivalents of Neu5Ac and 5.0 equivalents of CTP
Text: White bars: GalNAcαSer was used as an acceptor with 1 equivalent of Neu5Ac and 1.5 equivalents of CTP. Grey bars: GalNAcαSer was used as an acceptor with 2.5 equivalents of Neu5Ac and 5.0 equivalents of CTP. Black bars: GalNAcαThr was used as an acceptor with 2.5 equivalents of Neu5Ac and 5.0 equivalents of CTP.
In this system, CTP and Neu5Ac were used by NmCSS for the formation of CMP-Neu5Ac in situ (see also, Yu and Chen, et al. Bioorg. Med. Chem. 2004, 12, 6427-6435). CMP-Neu5Ac was used as the donor substrate for Psp26ST(15-501)-His6 or its mutants. […] For example, using 1 equivalent of Neu5Ac and 1.5 equivalents of CTP in the one-pot two-enzyme (OP2E) reaction (white bars in FIG. 6) improved the GalNAcαSer α2-6-sialylation reaction yields from less than 6% (1 equivalent CMP-Neu5Ac was used) (FIG. 5B) to 32-51% for W365A, W365G, W365S mutants. Similarly, the OP2E reaction improved the GalNAcαSer α2-6-sialylation reaction yields from 40% and 37% to 75% and 67% for A366G mutant and the wild-type enzyme, respectively. Increasing the concentrations of Neu5Ac and CTP to 2.5 and 5.0 equivalents further improved the reaction yields to more than 67% for Psp26ST(15-501)-His6 and its mutants ([…]). […] Therefore, in situ generation of CMP-Neu5Ac, the sugar nucleotide donor for sialyltransferases, was proven an efficient method to enhance the yields for sialylation reactions catalyzed not only by the wild-type enzymes but also sialyltransferase mutants.

[5] = substrate: CC(=O)N[C@H]1[C@H]([C@H](O)[C@H](O)CO)O[C@](OP(=O)(O)OC[C@H]2O[C@@H](n3ccc(N)nc3=O)[C@H](O)[C@@H]2O)(C(=O)O)C[C@@H]1O; experiment: Donor hydrolysis kinetics (CMP-Neu5Ac hydrolysis), His6-Pd2,6ST(16-497); assay type: biochemical, Photobacterium damselae; conditions: other: apparent, 37° C., 20 min, Tris-HCl pH 8.0, pH 2.6
Experimental: as §1, §2

B1: Photobacterium sp. JH-ISH-224 α2-6-sialyltransferase Psp2,6ST(15-501)-His6 A235D mutant, SEQ ID NO: 14 (Photobacterium sp. JT-ISH-224; A235D) (protein)
chain: CNNSEENTQSIIKNDINKTIIDEEYVNLEPINQSNISFTKHSWVQTCGTQQLLTEQNKESISLSVVAPRLDDDEKYCFDFNGVSNKGEKYITKVTLNVVAPSLEVYVDHASLPTLQQLMDIIKSEEENPTAQRYIAWGRIVPTDEQMKELNITSFALINNHTPADLVQEIVKQAQTKHRLNVKLSSNTAHSFDNLVPILKELNSFNNVTVTNIDLYDDGSDEYVNLYNWRDTLNKTDNLKIGKDYLEDVINGINEDTSNTGTSSVYNWQKLYPANYHFLRKDYLTLEPSLHELRDYIGDSLKQMQWDGFKKFNSKQQELFLSIVNFDKQKLQNEYNSSNLPNFVFTGTTVWAGNHEREYYAKQQINVINNAINESSPHYLGNSYDLFFKGHPGGGIINTLIMQNYPSMVDIPSKISFEVLMMTDMLPDAVAGIASSLYFTIPAEKIKFIVFTSTETITDRETALRSPLVQVMIKLGIVKEENVLFWA
kcat [1]: 4.17 ± 0.333 s⁻¹

B2: A235D: Psp26ST(15-501)-His6 with A235D point mutation; SEQ ID NO: 14 (protein)
chain: CNNSEENTQSIIKNDINKTIIDEEYVNLEPINQSNISFTKHSWVQTCGTQQLLTEQNKESISLSVVAPRLDDDEKYCFDFNGVSNKGEKYITKVTLNVVAPSLEVYVDHASLPTLQQLMDIIKSEEENPTAQRYIAWGRIVPTDEQMKELNITSFALINNHTPADLVQEIVKQAQTKHRLNVKLSSNTAHSFDNLVPILKELNSFNNVTVTNIDLYDDGSDEYVNLYNWRDTLNKTDNLKIGKDYLEDVINGINEDTSNTGTSSVYNWQKLYPANYHFLRKDYLTLEPSLHELRDYIGDSLKQMQWDGFKKFNSKQQELFLSIVNFDKQKLQNEYNSSNLPNFVFTGTTVWAGNHEREYYAKQQINVINNAINESSPHYLGNSYDLFFKGHPGGGIINTLIMQNYPSMVDIPSKISFEVLMMTDMLPDAVAGIASSLYFTIPAEKIKFIVFTSTETITDRETALRSPLVQVMIKLGIVKEENVLFWA
modifications: C-terminal His6; Synthetic Psp26ST(15-501) A235D
sialylation activity compared to wild-type [2]: maintaining most of the sialylation activity | donor hydrolysis activity compared to wild-type [3]: decreased donor hydrolysis activity

yield of Neu5Acα2-6GalNAcαThr from GalNAcαThr, OP2E [4]: 91%
B3: W365G: Psp26ST(15-501)-His6 with W365G point mutation; SEQ ID NO: 4 (protein)
chain: CNNSEENTQSIIKNDINKTIIDEEYVNLEPINQSNISFTKHSWVQTCGTQQLLTEQNKESISLSVVAPRLDDDEKYCFDFNGVSNKGEKYITKVTLNVVAPSLEVYVDHASLPTLQQLMDIIKSEEENPTAQRYIAWGRIVPTDEQMKELNITSFALINNHTPADLVQEIVKQAQTKHRLNVKLSSNTAHSFDNLVPILKELNSFNNVTVTNIDLYDDGSAEYVNLYNWRDTLNKTDNLKIGKDYLEDVINGINEDTSNTGTSSVYNWQKLYPANYHFLRKDYLTLEPSLHELRDYIGDSLKQMQWDGFKKFNSKQQELFLSIVNFDKQKLQNEYNSSNLPNFVFTGTTVGAGNHEREYYAKQQINVINNAINESSPHYLGNSYDLFFKGHPGGGIINTLIMQNYPSMVDIPSKISFEVLMMTDMLPDAVAGIASSLYFTIPAEKIKFIVFTSTETITDRETALRSPLVQVMIKLGIVKEENVLFWA
modifications: C-terminal His6; Synthetic Psp26ST(15-501) W365G

yield of Neu5Acα2-6GalNAcαThr from GalNAcαThr, OP2E [4]: 85%
B4: W365A: Psp26ST(15-501)-His6 with W365A point mutation; SEQ ID NO: 6 (protein)
chain: CNNSEENTQSIIKNDINKTIIDEEYVNLEPINQSNISFTKHSWVQTCGTQQLLTEQNKESISLSVVAPRLDDDEKYCFDFNGVSNKGEKYITKVTLNVVAPSLEVYVDHASLPTLQQLMDIIKSEEENPTAQRYIAWGRIVPTDEQMKELNITSFALINNHTPADLVQEIVKQAQTKHRLNVKLSSNTAHSFDNLVPILKELNSFNNVTVTNIDLYDDGSAEYVNLYNWRDTLNKTDNLKIGKDYLEDVINGINEDTSNTGTSSVYNWQKLYPANYHFLRKDYLTLEPSLHELRDYIGDSLKQMQWDGFKKFNSKQQELFLSIVNFDKQKLQNEYNSSNLPNFVFTGTTVAAGNHEREYYAKQQINVINNAINESSPHYLGNSYDLFFKGHPGGGIINTLIMQNYPSMVDIPSKISFEVLMMTDMLPDAVAGIASSLYFTIPAEKIKFIVFTSTETITDRETALRSPLVQVMIKLGIVKEENVLFWA
modifications: C-terminal His6; Synthetic Psp26ST(15-501) W365A

B5: Photobacterium damselae α2-6-sialyltransferase His6-Pd2,6ST(16-497) (Photobacterium damselae) (protein)
chain: CNSDNTSLKETVSSNSADVVETETYQLTPIDAPSSFLSHSWEQTCGTPILNESDKQAISFDFVAPELKQDEKYCFTFKGITGDHRYITNTTLTVVAPTLEVYIDHASLPSLQQLIHIIQAKDEYPSNQRFVSWKRVTVDADNANKLNIHTYPLKGNNTSPEMVAAIDEYAQSKNRLNIEFYTNTAHVFNNLPPIIQPLYNNEKVKISHISLYDDGSSEYVSLYQWKDTPNKIETLEGEVSLLANYLAGTSPDAPKGMGNRYNWHKLYDTDYYFLREDYLDVEANLHDLRDYLGSSAKQMPWDEFAKLSDSQQTLFLDIVGFDKEQLQQQYSQSPLPNFIFTGTTTWAGGETKEYYAQQQVNVINNAINETSPYYLGKDYDLFFKGHPAGGVINDIILGSFPDMINIPAKISFEVLMMTDMLPDTVAGIASSLYFTIPADKVNFIVFTSSDTITDREEALKSPLVQVMLTLGIVKEKDVLFWA
kcat [5]: 3.67 ± 0.333 s⁻¹
